Legend:
[1] = target: isotype control antibody directed against measles virus (2B4-IgG) (human); test: BLI; Octet K2, 30°C; antibody (6 µg/ml) loaded on anti-human Fab-CH1 biosensors; mouse FcRn-b2m in solution, 2,000 to 0 nM; 100 mM sodium phosphate, 150 mM NaCl, 0.05% Tween-20, pH 6; 60 s association, 60 s dissociation
[2] = target: AQP4-IgG (rAb-53) with the Fc mutation N297D (human); test: as above
[3] = target: human monoclonal AQP4-IgG (rAb-53), wild type (human); test: as above
[4] = target: AQP4-IgG (rAb-53) with the Fc mutation P331G (human); test: as above
[5] = target: AQP4-IgG (rAb-53) with the Fc mutation P329A (human); test: as above
[6] = target: AQP4-IgG (rAb-53) with the Fc mutation D270A (human); test: as above
[7] = target: AQP4-IgG (rAb-53) with the Fc mutation K322A (human); test: as above
[8] = target: AQP4-IgG (rAb-53) with the Fc mutation N297D (human); test: BLI; Octet K2, 30°C; antibody (6 µg/ml) loaded on anti-human Fab-CH1 biosensors; mouse FcRn-b2m in solution; PBS pH 7.2 for dilution, association and dissociation
[9] = target: AQP4-IgG (rAb-53) with the Fc mutation P331G (human); test: as above
[10] = target: AQP4-IgG (rAb-53) with the Fc mutation K322A (human); test: as above

Sequence of AQP4-IgG (rAb-53) with the Fc mutation P331G (human) (heavy, as listed by the source, chain 1 of 2): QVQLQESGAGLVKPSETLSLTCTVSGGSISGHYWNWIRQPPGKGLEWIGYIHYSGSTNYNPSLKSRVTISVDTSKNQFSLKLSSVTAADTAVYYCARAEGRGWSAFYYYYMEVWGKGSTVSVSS
Sequence of AQP4-IgG (rAb-53) with the Fc mutation P331G (human) (light, as listed by the source, chain 2 of 2): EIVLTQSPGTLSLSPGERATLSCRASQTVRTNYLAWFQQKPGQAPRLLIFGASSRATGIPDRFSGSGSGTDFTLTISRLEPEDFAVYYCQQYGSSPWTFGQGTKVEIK
Sequence of AQP4-IgG (rAb-53) with the Fc mutation N297D (human) (heavy, as listed by the source, chain 1 of 2): as the sequence (heavy, as listed by the source, chain 1 of 2) above
Sequence of AQP4-IgG (rAb-53) with the Fc mutation N297D (human) (light, as listed by the source, chain 2 of 2): as the sequence (light, as listed by the source, chain 2 of 2) above
Sequence of AQP4-IgG (rAb-53) with the Fc mutation K322A (human) (heavy, as listed by the source, chain 1 of 2): as the sequence (heavy, as listed by the source, chain 1 of 2) above
Sequence of AQP4-IgG (rAb-53) with the Fc mutation K322A (human) (light, as listed by the source, chain 2 of 2): as the sequence (light, as listed by the source, chain 2 of 2) above
Sequence of human monoclonal AQP4-IgG (rAb-53), wild type (human) (heavy, as listed by the source, chain 1 of 2): as the sequence (heavy, as listed by the source, chain 1 of 2) above
Sequence of human monoclonal AQP4-IgG (rAb-53), wild type (human) (light, as listed by the source, chain 2 of 2): as the sequence (light, as listed by the source, chain 2 of 2) above
Sequence of AQP4-IgG (rAb-53) with the Fc mutation P329A (human) (heavy, as listed by the source, chain 1 of 2): as the sequence (heavy, as listed by the source, chain 1 of 2) above
Sequence of AQP4-IgG (rAb-53) with the Fc mutation P329A (human) (light, as listed by the source, chain 2 of 2): as the sequence (light, as listed by the source, chain 2 of 2) above
Sequence of AQP4-IgG (rAb-53) with the Fc mutation D270A (human) (heavy, as listed by the source, chain 1 of 2): as the sequence (heavy, as listed by the source, chain 1 of 2) above
Sequence of AQP4-IgG (rAb-53) with the Fc mutation D270A (human) (light, as listed by the source, chain 2 of 2): as the sequence (light, as listed by the source, chain 2 of 2) above

Req [1]: 0.76 | Req [2]: 1 | Req [3]: 0.851 | Req [4]: 0.915 | Req [5]: 1.16 | Req [6]: 0.43 | Req [7]: 0.987 | Req [8]: 0.136 | Req [9]: 0.151 | Req [10]: 0.198
Substance: mouse FcRn-Beta-2 microglobulin heterodimer protein (from UniProt Q61559 22-297; P01887 21-119) (complex)

From PMC6053506
